Data published in the DeepSol protein solubility set.

Experiment: soluble on expression in E. coli; label from the status in PepcDB or PDB records
For “MSLTAHGLCEFIDASPSPFHVCATVAGRLLGAGYRELREADRWPDKPGRYFTVRAGSLVAWNAEQSGHTQVPFRIVGAHTDSPNLRVKQHPDRLVAGWHVVALQPYGGVWLHSWLDRDLGISGRLSVRDGTGVSHRLVLIDDPILRVPQLAIHLAEDRKSLTLDPQRHINAVWGVGERVESFVGYVAQRAGVAAADVLAADLMTHDLTPSALIGASVNGTASLLSAPRLDNQASCYAGMEALLAVDVDSASSGFVPVLAIFDHEEVGSASGHGAQSDLLSSVLERIVLAAGGTREDFLRRLTTSMLASADMAHATHPNYPDRHEPSHPIEVNAGPVLKVHPNLRYATDGRTAAAFALACQRAGVPMQRYEHRADLPCGSTIGPLAAARTGIPTVDVGAAQLAMHSARELMGAHDVAAYSAALQAFLSAELSEAEGHHHHHH”, the “soluble on expression in E. coli” value was “not soluble”. In the case of “MSLTASDQFNSTHSAVDQYAELVLHNGRMYTLDPAQPWADAVAIRQGKLIAVGSLASLASLIGPNTRQHDLDGAFCMPGLHDMHTHPDLALAPRYADDLDVGIEDPTPEQLAAAIHAYADSHPGDGWIYGQYWVRYTFREAGLTPGREWLDSVMPHRPVALLDRMWGTMMVNSKALELAGIDRHTSDPRNGYLERDELTGEPNGLLIDGAYALIHAAMPPTPVSVLRRAYRDGVHFQTSRGVTATKYVHVCENRLQALKELDDAGELTLRVEAAISWQDDIFPVRRRWELLSGERHFYRSARLSANAVKFHFDGTVEPKSSYLLTPWPEESSWRGKLNLTPEHITDMVVDMDKRGLRVIAHCTGDGASDVFLDAVAEARRRNGNSGIRHQCAHSTLLHPGNLKRFQALDVIAEFSPAAWYPTPFASGARSGYGQERLKRIYDFKGVLAAGGIAVFGTDWPVASIDPWLALETMVTRQNPWNQEPDTFGDPISLEQALQVATLNGAHAMGLEHLTGSLEAGKSADLIVLDRDLFAQGARNYIHHTQVQLTFVEGQLVYDRQGTEGHHHHHH”, the “soluble on expression in E. coli” value was “not soluble”. In the case of “MSLTASSSEEKADKSQELVIYSNSVSNGRGDWLTAKAKEAGFNIKMVDIAGAQLADRVIAEKNNAVADMVFGIGAVDSNKIRDQKLLVQYKPKWLDKIDQSLSDKDNYYNPVIVQPLVLIGAPDVKEMPKDWTELGSKYKGKYSIYGLQGGTGRAILASILVRYLDEKGDLGVSEKGWEVAKEYFANAYTLQKGESSVVKALDKESPIQYGMIWGSGALIGQKEQNVEFKVMTPEIGVPFVTEQTMVLSTSKKQALAKEFIDWFGQSEIQVEYSKKFGSIPANKDALKELPEDTKKFVDQVKPQNIDWEAVGKHLDEWVEKAELEYVKEGHHHHHH”, the “soluble on expression in E. coli” value was “soluble”. For “MSLTDKMQSLALAPVGNLDSYIRAANAWPMLSADEERALAEKLHYHGDLEAAKTLILSHLRFVVHIARNYAGYGLPQADLIQEGNIGLMKAVRRFNPEVGVRLVSFAVHWIKAEIHEYVLRNWRIVKVATTKAQRKLFFNLRKTKQRLGWFNQDEVEMVARELGVTSKDVREMESRMAAQDMTFDLSSDDDSDSQPMAPVLYLQDKSSNFADGIEDDNWEEQAANRLTDAMHGLDERSQDIIRARWLDEDNKSTLQELADRYGVSAERVRQLEKNAMKKLRAAIEAEGHHHHHH”, the “soluble on expression in E. coli” value was “soluble”. For “MSLTEKTDQTLMLIDGHSMAFRAFFALPAENFSTSGGQATNAVYGFLSMLSTLLKDEQPTHVAVAFDVGRKTFRTDMFPAYKAQREATPPEFKGQVEILKEVLSTLGITTIEKIDFEADDVIATLSVAAKPLGFKTLIVTGDRDSFQLVNDTTTVLYPMKGVSVLHRFTPEAVEEKYGLTPRQYPEFAALRGDPSDNLPNIPGVGEKTATKWIAQYETLDNLLDHADEIKGKVGASLRERIEQVRMNRKLTEMVKDLELPLGPDDFEMKPVQVAEVAAKFDDLEFGTNLRERVLAVVKAEGSAAPVEEVEAEQVVVDTQSLAQWLPARAGQALALALAGVAKPAAGDTYALAIADTKRHAVLVDVADISAEDEKALATWLASEDPKMLHGAKAAYHMLAGRGFELHGVVHDTAIAAYLLRPGQRTYELADVYQRHLQRQLSTNDNGGQLTLLDAADDQSLVDDVIAILELSEELTKQLQEIQAFELYHDLEIPLSGILARMEAIGEGHHHHHH”, the “soluble on expression in E. coli” value was “soluble”. In the case of “MSLTETQSLELAKELISRPSVTPDDRDCQKLMAERLHKIGFAAEEMHFGNTKNIWLRRGTKAPVVCFAGHTDVVPTGPVEKWDSPPFEPAERDGRLYGRGAADMKTSIACFVTACERFVAKHPNHQGSIALLITSDEEGDALDGTTKVVDVLKARDELIDYCIVGEPTAVDKLGDMIKNGRRGSLSGNLTVKGKQGHIAYPHLAINPVHTFAPALLELTQEVWDEGNEYFPPTSFQISNINGGTGATNVIPGELNVKFNFRFSTESTEAGLKQRVHAILDKHGVQYDLQWSCSGQPFLTQAGKLTDVARAAIAETCGIEAELSTTGGTSDGRFIKAMAQELIELGPSNATIHQINENVRLNDIPKLSAVYEGILVRLLAGNAVEGGSHHHHHH”, the “soluble on expression in E. coli” value was “soluble”. With “MSLTGREKNPSLTAKELEGGLLIVDEMSMVDTWLANTLLKAIPTNMQVIFVGDKDQLPSVGPGQVLHDLLQINEIPKCELNEIYRQGDGSSIIPLAHEIKEGKLPADFQKNQKDRSFFASDIGHIEEYIRQIVTKAKAKGFTPQDIQVLAPMYRGAAGIDALNKMMQEIFNPNDGKKKEVKWNDTVYRIGDKVLQLVNTPELNVFNGDMGEIVGITLAKDSEDKVDELVLQFDNNEVTYKRNEWNKITLSYCCSIHKAQGSEFRMVLLPMVHQYSRMLQRNLLYTAVTRSKELLILLGEVSAFETCVKNESASRMTMLKERIVNAEQEGHHHHHH” the “soluble on expression in E. coli” value was “not soluble”. In the case of “MSLTIKLIAIDIDGTLLNEKNELAQATIDAVQAAKAQGIKVVLCTGRPLTGVQPYLDAMDIDGDDQYAITFNGSVAQTISGKVLTNHSLTYEDYIDLEAWARKVRAHFQIETPDYIYTANKDISAYTIAESYLVRMLIQYREVSETPRDLTISKAMFVDYPQVIEQVKANMPQDFKDRFSVVQSAPYFIEVMNRRASKGGTLSELVDQLGLTADDVMTLGDQGNDLTMIKYAGLGVAMGNAIDEVKEAAQAVTLTNAENGVAAAIRKYALNEGHHHHHH”, the “soluble on expression in E. coli” value was “soluble”. In the case of “MSLTKIVLITGANKGIGFETAKQIGKNGWTLLISTRNEERGKNAVHQLQQDGITAEWLQIDLNDIASIHKAARYVEERYPKLDGLINNAGISGDMQKNPLELKSSELEQLAKVNFLGNFEMIKSFTPILSRNHGRILNVTIPATPIGSFNPLGYLASKASLNSMIKSFAMYYKKHEIPVEIFGVLPGGISTDLNQHQSGLLIRTVQEGGESIAKVMMDRHNHQGKLLMRMGLTQLARNFVFRRHDEGHHHHHH”, the “soluble on expression in E. coli” value was “not soluble”. For “MSLTLPSEKPATDVAAQCFLNALIRETTDWKLTEYPPDELIIPLDEQKSLHFRVAYFSPTQHHRFAFPARLVTASGSYPVDFTTLSRLIIDKLRHQLFLPVPLCETFHQRVLESHAHTQQAIDARHDWTALREKALNFGEAEQALLTGHAFHPAPKSHEPFNRREAERYLPDMAPHFPLRWFSVDKTQIAGESLHLNLQQRLTRFAAENAPQLLNELSDNQWLFPLHPWQGEYLLQQGWCQALVAKGLIKDLGEAGTSWLPTTSSRSLYCATSRDMIKFSLSVRLTNSIRTLSVKEVKRGMRLARLAQTDGWQMLQVRFPTFRVMQEDGWAGLLDLNGNIMQESLFALRENLLVDQPKSQTNVLVSLTQAAPDGGDSLLVSAVKRLSDRLGITVQQAAHAWVDAYCQQVLKPLFTAEADYGLVLLAHQQNILVQMLGDLPVGFIYRDCQGSAFMPHATDWLDSIGEAQAENIFTHEQLLRYFPYYLLVNSTFAVTAALGAAGLDSESNLMARVRASLAEVRDQVTHKTCLNYVLESPYWNVKGNFFCYLNDHNENTIVDPSVIYFDFANPLQAQEGHHHHHH”, the “soluble on expression in E. coli” value was “soluble”. For “MSLTMVQVTLEVNGRQVAHEAPPRMHLGDFLRDQARLTGTHLGCEHGVCGACTVLVDGQPVRSCITYAVACEGRQVTTIEGYDGDPVMARLRAAFTKYHALQCGYCTPGMLTTSRDIVLRLPDADEARVRVELSGNLCRCTGYMGIVGAVMSVLRDLREQPDAAVQALRAAAADGRLPAPRGEQPIAFQPFTPSAPSGKGNQIVDAFTVPFPAAEVWAFMVDLPAVAACLPGAVIEETDGQRVKGKIAIKFGPMAAAFNGAARLERDEAAMRAVFRGAGQDSLSQSRATGDIAYQVEAVSENETRVKVDLQYALQGPLAQFSRSGLVQDFVRRMIADFGKNVTARLREGHHHHHH”, the “soluble on expression in E. coli” value was “soluble”. With “MSLTMYADLVLHGGSIATLDDKLEQAQAVAIAAGRIIAVGSDAHCLALAGPGTRRIGLGGACVMPGINDSHCHPDGQAVKAGRWDDVSQVATQQALLARIADFHRRMPAGAWYLGFRFDDTHSGGYPARQALEQAAPGRPVFLLRRDAQVGLASAPALAALLASGLATQVPPHCLDAATGLARGRGVFAFTTHIAAADSLDDYLEGFPTLFAEMGRMGITSVHNALTSALAVQAYRALHGAGRLPVRVGMMLNGRDQRLVDETLAAGLRFGAGDDRLYLLGVEYGSDGSTSGRTAAYYQPYVGEEGGDGRPANRGDVNFSAEDLAAKVGRVMAAGLQAAATGNGDRGIDFALDAFEQGLRAHPGAVPPRIEHCCCAPPAIQQRMAALGVIDSSAAGFAYNLGDAYLRNRPSAEMAWMWPHRDMLDRGVLVCAHSDAPVCERNPFLGMWSMVTRKTASGASLGAGQAITPLEAMRCYTANPARAEGQAARKGTLSPGKLADLIVLDRDPCAVDPDEIRHTQVLATLVGGQATYRAAGAPSWADELPMREEGHHHHHH” the “soluble on expression in E. coli” value was “soluble”. For “MSLTNDYRFEFRPYQRRFLRSLTTNHGKWDIREGIILRLTDETLRVGWGEIAPISWFGSETLEQVLDFCRQLPGEITDETIFSIPDELPACQFGFESAWEWGSWKWGNEFFSMPNAQCPMPNAQSFSALLPFGEAALNQWETLWQKGYRTFKWKIGVDAIADELKIFESLTRILPASTKLRLDANGGLSYEEANLWLRTCDNLKANAELPLEIEFIEQPLPVEQFQQMLELSTSYETAIALDESVATLKQLAACHQQGWREIFVIKPGIVGSPSRLRKFCHQHQIDTVFSSVLETAIGRLAALQIAAELSRNNRAIGFGIDHFFEQEETWFQTLWNDLEGHHHHHH”, the “soluble on expression in E. coli” value was “soluble”. With “MSLTNEPLASRMRPNNIDEIISQEHLVGPKGIIRRMVETKRLSSMIFYGPPGIGKTSIAKAISGSTQFKFRQLNAVTNTKKDMQLIVEEAKMSGQVILLLDEIHRLDKAKQDFLLPHLENGKIVLIGATTSNPYHAINPAIRSRAQIFELYPLDENDVRVSLDRALNDSERGLASYNPKVDEDAMAYFTTQSQGDVRSALNALELAVLSSENIDQQRHITLQDAKDCLQKGAFVSDKDGDMHYDVMSAFQKSIRGSDVNAALHYLARLIEAGDLPTIVRRLLVISFEDVGLASPSAGQRTLAAIESAERLGFPEARIPLSQAVIELCLSPKSNSGINAIDAALSDIRKGHVGQIPDHLKDGHYAGAKELGRSIGYKYPHNYENGFVTQQYLPMKLKNRIYYEPKTTSKSEQQFKAVFDHINQSQQKNKEGHHHHHH” the “soluble on expression in E. coli” value was “not soluble”. For “MSLTPFGVRSVVFDPDKGLVINGEHVPIRGVNNHHDLGALGAAFNVRAAERQLQLLQQMGANAIRMSHNPPAPELLELTDRMGLLVVDEVFDSWEMKKTPLDFHLIFPQWHEPDLRAMLRRDRNHPSIILWSVGNEVGEQYTGEAGAAIARRLHAIVHAEDPTRPATAAMNYASPEMPLPAALDVISLNYQGEGIRDTPEFEGTERIRKPPQYPAFHAKFPRKAILSSETASALSSRGVYLFPVSAQSSAPVRDGRGGDSVAHQVSAYELHAVDFGSSADKVFAALDRHPFVAGEFVWTGFDYLGEPTPYYSSRSSYSGILDLAGFPKDRYWLYQARWRPELPMAHLLPHWSWPGREGQVTPVHVFTSGDEAELFVNGVSQGRKRKAPLQYRLRWDAVVYQPGELRVQAYKHGRPWASDRVQTAGRATRMQLSADRNQIRGDGKDLSFITVRLLDADGRPAPTAGDRLRFRVEGAGELVATDNGDPTNLEAFVLPEREGHHHHHH”, the “soluble on expression in E. coli” value was “soluble”.
